Measured values published in patent US20240376185A1 (SMIVET B V, published 2024).
Where two headings read alike, the source gives them in different places.

Columns and labels:
[1] = target: T1, tetanus neurotoxin (TeNT), authentic tetanus holotoxin (Clostridium tetani, UniProt P04958 2-1315); test: GT1b-TeNT inhibition ELISA
[2] = target: horse albumin (horse Alb) (horse, UniProt P35747 25-607); test: BLI ([…] (0.11 nm), […] (0.01 nm)
[3] = target: T1, tetanus neurotoxin (TeNT), authentic …; test: ELISA: directly coated TeNT, anti-his6 PO
[4] = target: T1, tetanus neurotoxin (TeNT), authentic …; test: BLI (Octet Red96): biotinylated SDA on SA sensor, TeNT as analyte
[5] = target: T1, tetanus neurotoxin (TeNT), authentic …; test: bridging ELISA: coated TeNT, SDA, biotinylated TeNT, StrepPO (bivalent binding)
[6] = target: T1, tetanus neurotoxin (TeNT), authentic …; test: GT1b-TeNT inhibition ELISA; remark: listed apart in the source
[7] = target: T1, tetanus neurotoxin (TeNT), authentic …; test: ELISA: directly coated TeNT, goat anti-llama Ig PO
[8] = target: T1, tetanus neurotoxin (TeNT), authentic …; test: bridging ELISA: coated TeNT, SDA, biotinylated TeNT, StrepPO (bivalent binding); remark: listed apart in the source
[9] = target: T1, tetanus neurotoxin (TeNT), authentic …; test: ELISA: directly coated TeNT, anti-his6 PO; remark: listed apart in the source
[10] = target: T1, tetanus neurotoxin (TeNT), authentic …; test: ELISA: directly coated TeNT, goat anti-llama Ig PO; remark: listed apart in the source
[11] = target: T1, tetanus neurotoxin (TeNT), authentic …
[12] = target: T1, tetanus neurotoxin (TeNT), authentic …; test: BLI (Octet Red96); estimate of the footnote with kdis set to 1.0E-07; avidity
[13] = target: T1, tetanus neurotoxin (TeNT), authentic …; test: BLI (Octet Red96); avidity (bivalent for TeNT); format for this SDA not told
[14] = target: T2, Tetanus neurotoxin (TeNT), authentic tetanus holotoxin (Clostridium tetani, UniProt P04958 2-1315)
T2 sequence (P04958 2-457 limits assumed, chain 1 of 2): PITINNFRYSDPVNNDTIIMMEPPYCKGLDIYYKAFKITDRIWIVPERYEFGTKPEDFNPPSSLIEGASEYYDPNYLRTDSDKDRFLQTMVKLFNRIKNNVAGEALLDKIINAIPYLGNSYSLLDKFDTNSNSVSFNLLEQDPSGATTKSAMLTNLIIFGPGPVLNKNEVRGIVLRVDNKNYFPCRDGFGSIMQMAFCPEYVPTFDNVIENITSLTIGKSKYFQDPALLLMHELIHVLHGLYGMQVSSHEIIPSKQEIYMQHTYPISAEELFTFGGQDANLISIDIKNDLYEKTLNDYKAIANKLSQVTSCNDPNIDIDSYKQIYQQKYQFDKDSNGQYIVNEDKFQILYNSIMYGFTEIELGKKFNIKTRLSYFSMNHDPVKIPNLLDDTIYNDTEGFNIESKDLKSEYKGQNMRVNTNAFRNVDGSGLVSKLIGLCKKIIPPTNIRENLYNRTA
T2 sequence (P04958 458-1315 limits assumed, chain 2 of 2): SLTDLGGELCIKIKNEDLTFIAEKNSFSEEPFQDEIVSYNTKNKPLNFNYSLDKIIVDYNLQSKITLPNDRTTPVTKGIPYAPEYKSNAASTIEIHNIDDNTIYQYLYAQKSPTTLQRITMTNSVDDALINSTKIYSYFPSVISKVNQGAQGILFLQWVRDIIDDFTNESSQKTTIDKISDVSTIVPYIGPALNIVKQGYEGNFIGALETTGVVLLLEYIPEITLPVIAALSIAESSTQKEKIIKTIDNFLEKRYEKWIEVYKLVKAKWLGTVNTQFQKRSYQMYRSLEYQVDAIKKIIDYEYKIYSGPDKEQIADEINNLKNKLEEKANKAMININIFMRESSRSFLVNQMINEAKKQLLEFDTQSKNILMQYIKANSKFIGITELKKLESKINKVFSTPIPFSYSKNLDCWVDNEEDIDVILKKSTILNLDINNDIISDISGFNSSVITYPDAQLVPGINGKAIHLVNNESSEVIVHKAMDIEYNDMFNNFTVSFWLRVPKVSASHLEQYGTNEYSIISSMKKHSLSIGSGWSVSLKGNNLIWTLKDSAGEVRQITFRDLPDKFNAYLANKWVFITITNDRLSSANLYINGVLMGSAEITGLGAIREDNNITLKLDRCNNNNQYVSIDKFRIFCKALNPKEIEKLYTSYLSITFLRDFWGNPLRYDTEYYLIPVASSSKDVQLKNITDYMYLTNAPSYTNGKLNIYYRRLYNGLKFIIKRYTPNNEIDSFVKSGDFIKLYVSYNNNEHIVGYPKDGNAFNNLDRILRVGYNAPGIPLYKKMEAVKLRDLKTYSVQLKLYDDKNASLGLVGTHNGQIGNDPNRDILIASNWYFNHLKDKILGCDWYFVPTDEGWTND

[15] = target: T2, Tetanus neurotoxin (TeNT), authentic …; remark: listed apart in the source
[16] = target: T3, Dog albumin (dog, UniProt P49822 25-608); test: BLI (Octet Red96), biotinylated SDA on SA sensor, albumin as analyte
T3 construct: also called Canine albumin; Canine Alb
T3 sequence (P49822 25-608 limits assumed): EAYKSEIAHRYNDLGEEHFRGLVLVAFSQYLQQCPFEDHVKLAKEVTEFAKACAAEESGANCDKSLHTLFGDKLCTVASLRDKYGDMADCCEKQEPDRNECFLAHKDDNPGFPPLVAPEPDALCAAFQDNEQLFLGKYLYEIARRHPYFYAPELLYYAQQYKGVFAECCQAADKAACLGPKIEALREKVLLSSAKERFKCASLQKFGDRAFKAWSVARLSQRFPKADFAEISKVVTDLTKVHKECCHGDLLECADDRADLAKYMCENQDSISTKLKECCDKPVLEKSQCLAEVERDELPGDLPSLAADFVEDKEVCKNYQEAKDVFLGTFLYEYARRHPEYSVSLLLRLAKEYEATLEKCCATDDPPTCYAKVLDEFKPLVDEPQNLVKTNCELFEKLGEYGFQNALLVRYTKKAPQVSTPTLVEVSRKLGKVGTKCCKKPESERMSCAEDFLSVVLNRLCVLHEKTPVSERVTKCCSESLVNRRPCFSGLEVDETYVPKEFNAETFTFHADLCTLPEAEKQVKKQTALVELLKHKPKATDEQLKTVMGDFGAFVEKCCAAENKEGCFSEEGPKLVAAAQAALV

[17] = target: Human albumin (human, UniProt P02768 25-609); test: BLI (Octet Red96), biotinylated albumin on SA sensor, SDA as analyte
[18] = target: T4, Horse albumin (horse, UniProt P35747 25-607); test: as above
T4 construct: also called Equine albumin; Equine Alb
T4 sequence (P35747 25-607 limits assumed): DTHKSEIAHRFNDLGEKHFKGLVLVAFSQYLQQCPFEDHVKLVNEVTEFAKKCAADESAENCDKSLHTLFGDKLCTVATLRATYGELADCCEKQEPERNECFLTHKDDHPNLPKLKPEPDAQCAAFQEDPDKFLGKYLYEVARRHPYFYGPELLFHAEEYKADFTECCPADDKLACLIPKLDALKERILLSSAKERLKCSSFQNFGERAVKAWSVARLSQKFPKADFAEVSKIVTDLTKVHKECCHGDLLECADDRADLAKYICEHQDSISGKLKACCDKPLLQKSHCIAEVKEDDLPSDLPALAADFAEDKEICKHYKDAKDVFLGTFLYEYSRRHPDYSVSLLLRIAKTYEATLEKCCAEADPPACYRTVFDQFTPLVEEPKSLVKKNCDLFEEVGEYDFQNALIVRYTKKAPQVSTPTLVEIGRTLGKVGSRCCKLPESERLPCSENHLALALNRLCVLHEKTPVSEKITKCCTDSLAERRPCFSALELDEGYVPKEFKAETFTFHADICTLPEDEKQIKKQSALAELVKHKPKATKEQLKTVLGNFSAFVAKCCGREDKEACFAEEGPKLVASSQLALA

[19] = target: T5, cat albumin (cat, UniProt P49064 25-608); test: ELISA on cat albumin captured from serum
T5 construct: also called Feline albumin

[20] = target: T5, cat albumin; test: ELISA; A450 below 0.2 at highest SDA concentration
[21] = target: T6, horse albumin (horse, UniProt P35747 25-607); test: ELISA; A450 below 0.2 at highest SDA concentration
T6 construct: also called Equine albumin
T6 sequence (P35747 25-607 limits assumed): as above

[22] = target: T7, sheep albumin (sheep, UniProt P14639 25-607); test: ELISA; A450 below 0.2 at highest SDA concentration
T7 sequence (P14639 25-607 limits assumed): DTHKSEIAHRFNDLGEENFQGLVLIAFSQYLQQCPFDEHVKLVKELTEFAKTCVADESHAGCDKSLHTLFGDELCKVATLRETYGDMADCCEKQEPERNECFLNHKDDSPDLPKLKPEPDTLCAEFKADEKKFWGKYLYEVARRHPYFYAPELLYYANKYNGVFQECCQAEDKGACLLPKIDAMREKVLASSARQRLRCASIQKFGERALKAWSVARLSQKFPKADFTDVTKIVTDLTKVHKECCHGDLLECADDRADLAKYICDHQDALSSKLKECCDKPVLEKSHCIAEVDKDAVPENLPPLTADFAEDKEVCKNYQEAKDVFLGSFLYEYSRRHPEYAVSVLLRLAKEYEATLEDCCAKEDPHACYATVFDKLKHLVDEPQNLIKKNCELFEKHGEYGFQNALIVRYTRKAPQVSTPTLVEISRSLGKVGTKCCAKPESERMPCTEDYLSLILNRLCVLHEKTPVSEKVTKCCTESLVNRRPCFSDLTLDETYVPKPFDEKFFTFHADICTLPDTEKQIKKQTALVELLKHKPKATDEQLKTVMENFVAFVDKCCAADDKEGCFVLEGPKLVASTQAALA

[23] = target: T8, swine albumin (swine, UniProt P08835 25-607); test: ELISA; A450 below 0.2 at highest SDA concentration
T8 construct: also called Porcine albumin
T8 sequence (P08835 25-607 limits assumed): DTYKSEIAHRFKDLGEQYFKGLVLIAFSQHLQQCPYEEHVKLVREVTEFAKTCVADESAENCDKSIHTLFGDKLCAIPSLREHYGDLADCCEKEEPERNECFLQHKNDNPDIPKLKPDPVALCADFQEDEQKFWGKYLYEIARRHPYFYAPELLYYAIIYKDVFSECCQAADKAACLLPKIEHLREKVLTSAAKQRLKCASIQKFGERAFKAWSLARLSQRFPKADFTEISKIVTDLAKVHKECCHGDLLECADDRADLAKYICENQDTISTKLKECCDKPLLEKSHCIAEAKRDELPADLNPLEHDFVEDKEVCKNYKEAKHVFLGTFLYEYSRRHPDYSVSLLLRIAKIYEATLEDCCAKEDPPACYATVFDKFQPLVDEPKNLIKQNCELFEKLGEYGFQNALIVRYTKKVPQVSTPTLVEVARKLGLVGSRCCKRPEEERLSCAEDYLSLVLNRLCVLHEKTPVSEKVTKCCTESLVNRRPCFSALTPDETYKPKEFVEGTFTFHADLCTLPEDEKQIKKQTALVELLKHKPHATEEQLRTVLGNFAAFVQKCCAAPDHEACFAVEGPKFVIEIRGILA

[24] = target: T9, chicken ovalbumin (chicken, UniProt P01012 2-386); test: ELISA; A450 below 0.2 at highest SDA concentration
T9 construct: also called Chicken Alb
T9 sequence (looked up): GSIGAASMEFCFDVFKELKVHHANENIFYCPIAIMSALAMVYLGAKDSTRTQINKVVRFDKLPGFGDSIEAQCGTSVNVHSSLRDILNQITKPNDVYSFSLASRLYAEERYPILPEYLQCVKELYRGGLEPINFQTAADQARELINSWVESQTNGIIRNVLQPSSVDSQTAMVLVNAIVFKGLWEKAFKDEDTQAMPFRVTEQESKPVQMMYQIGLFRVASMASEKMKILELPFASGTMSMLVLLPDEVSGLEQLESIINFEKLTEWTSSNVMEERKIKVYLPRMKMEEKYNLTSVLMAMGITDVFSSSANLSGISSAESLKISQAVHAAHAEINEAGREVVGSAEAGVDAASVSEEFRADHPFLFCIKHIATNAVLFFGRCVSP

[25] = target: T10, dog albumin (dog, UniProt P49822 25-608); test: ELISA; A450 below 0.2 at highest SDA concentration
T10 construct: also called Canine albumin
T10 sequence (P49822 25-608 limits assumed): as the sequence (P49822 25-608 limits assumed) above

[26] = target: T11, bovine albumin (bovine, UniProt P02769 25-607); test: ELISA; A450 below 0.2 at highest SDA concentration
T11 sequence (P02769 25-607 limits assumed): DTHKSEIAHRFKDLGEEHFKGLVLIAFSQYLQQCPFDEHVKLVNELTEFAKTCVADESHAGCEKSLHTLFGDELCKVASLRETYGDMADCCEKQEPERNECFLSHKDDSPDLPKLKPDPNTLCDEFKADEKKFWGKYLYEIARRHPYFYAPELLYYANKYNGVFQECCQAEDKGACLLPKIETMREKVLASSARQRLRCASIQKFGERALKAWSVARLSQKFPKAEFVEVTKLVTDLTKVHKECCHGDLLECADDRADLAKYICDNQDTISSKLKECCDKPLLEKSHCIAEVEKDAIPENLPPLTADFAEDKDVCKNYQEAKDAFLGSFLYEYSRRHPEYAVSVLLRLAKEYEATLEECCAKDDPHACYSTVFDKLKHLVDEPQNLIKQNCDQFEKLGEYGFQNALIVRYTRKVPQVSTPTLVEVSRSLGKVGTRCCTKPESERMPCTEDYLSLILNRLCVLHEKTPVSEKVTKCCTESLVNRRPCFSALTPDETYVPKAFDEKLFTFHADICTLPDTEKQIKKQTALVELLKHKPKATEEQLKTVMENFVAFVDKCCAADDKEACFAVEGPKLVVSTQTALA

[27] = target: T12, mouse albumin (mouse, UniProt P07724 25-608); test: ELISA; A450 below 0.2 at highest SDA concentration
T12 sequence (P07724 25-608 limits assumed): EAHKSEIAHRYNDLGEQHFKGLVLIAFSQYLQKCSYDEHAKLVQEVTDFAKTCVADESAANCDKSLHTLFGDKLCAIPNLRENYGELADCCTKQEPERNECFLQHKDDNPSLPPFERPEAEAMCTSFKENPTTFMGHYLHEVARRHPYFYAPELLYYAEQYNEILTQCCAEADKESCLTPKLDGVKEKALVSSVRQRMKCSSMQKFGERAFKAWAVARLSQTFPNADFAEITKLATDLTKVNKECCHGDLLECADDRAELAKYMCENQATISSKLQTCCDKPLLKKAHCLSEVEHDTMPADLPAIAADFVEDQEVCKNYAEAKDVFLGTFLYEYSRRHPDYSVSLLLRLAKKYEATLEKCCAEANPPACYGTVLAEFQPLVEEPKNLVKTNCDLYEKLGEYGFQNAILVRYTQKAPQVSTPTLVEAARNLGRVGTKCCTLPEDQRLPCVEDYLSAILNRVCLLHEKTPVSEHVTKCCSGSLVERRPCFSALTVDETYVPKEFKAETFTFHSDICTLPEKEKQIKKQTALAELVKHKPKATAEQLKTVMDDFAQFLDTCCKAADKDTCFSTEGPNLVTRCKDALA

[28] = target: T13, human albumin (human, UniProt P02768 25-609); test: ELISA; A450 below 0.2 at highest SDA concentration
[29] = target: T6, horse albumin; test: ELISA on coated albumin
[30] = target: T7, sheep albumin; test: ELISA on coated albumin
[31] = target: T8, swine albumin; test: ELISA on coated albumin
[32] = target: T9, chicken ovalbumin; test: ELISA on coated albumin
[33] = target: T10, dog albumin; test: ELISA on coated albumin
[34] = target: T11, bovine albumin; test: ELISA on coated albumin
[35] = target: T12, mouse albumin; test: ELISA on coated albumin
[36] = target: T13, human albumin; test: ELISA on coated albumin
[37] = target: T14, dog serum albumin (dog, UniProt P49822 25-608); test: BLI, biotinylated SDA on SA sensors
T14 construct: mature; also called dog Alb; Canine albumin
T14 sequence (P49822 25-608): as the sequence (P49822 25-608 limits assumed) above

[38] = target: T15, horse serum albumin (horse, UniProt P35747 25-607); test: BLI, biotinylated albumin on SA sensors
T15 construct: mature; also called horse Alb; Equine albumin
T15 sequence (P35747 25-607): as the sequence (P35747 25-607 limits assumed) above

[39] = target: T16, human serum albumin (human, UniProt P02768 25-609); test: BLI, biotinylated albumin on SA sensors
T16 construct: mature; also called human Alb

horse albumin (horse Alb), sequence (P35747 25-607 limits assumed): as above

B1: SVT16L (VHH)
VHH: QVQLQESGGGSVQAGDSLRLSCAASGRTISNYAMGWFRQAPGKQREFVAAISRSDNTYYTDSVKGRFTISRDNAKNTLYLQMNSLKPEETAVYYCAADPNLMYESKWKYRALEAWGQGTLVTVSS
- Effective SDA Concentration at A450 0.56 [1]: 21 ng/mL
- binding result [2]: no binding (tested: 100 nM)
- maximal absorbance value [3]: 1.56 A450
- Kd [4]: 0.339 nM
- koff [4]: 0.000311 s⁻¹
- kon [4]: 916000 M⁻¹ s⁻¹
- Effective SDA Concentration at A450 0.3 [5]: > 1000 ng/mL
- minimal absorbance value (GT1b-TeNT inhibition) [6]: 0.18 A450
- maximal absorbance value [7]: 0.44 A450
- maximal absorbance value [8]: 0.18 A450
- Effective SDA Concentration at A450 0.15 [9]: 1.4 ng/mL
- Effective SDA Concentration at A450 0.15 [10]: 5 ng/mL

B2: SVT06-GS3-SVT15-3FW4M-GS2-SVG06M4-H6 (bispecific antibody)
chain: QVQLQESGGGSVQAGGSLRLSCTASELSYDDYTIAWFRRAAGEGRVEDGEGVASITKSYDRAYDNKINYGHSVKGRFTISRDNAKNTVYLQMTDLLPSDTAVYYCALDITPPGGVGASLTEGFLFDYWGQGTQVTVSSGGGGSGGGGSGGGGSQVQLQESGGGLVQTGGSLRLSCRASGRAFANYHFGWFRQAPGKDREFVASISWKGGSTYYANFALGRFTSSVDRAESSVYLQMSGLTPEDTATYYCAAHDGGDWNYHTGMDYWGQGTQVTVSSGGGGSGGGSEVQLVESGGALVQPGGSLRLSCAASGFPFSAYDMTWVRQAPGQGLEWVSTIHKSGGITTYADSVKGRFTISRDNAKNTLYLQMNNLESEDTAVYYCAKALRAHNSDYVGRNALGSWGQGTQVTVSSHHHHHH
- Kd [11]: < 0.001 nM
- Kd [12]: ~0.00145 nM
- koff [13]: < 1e-07 s⁻¹
- kon [13]: 69100 M⁻¹ s⁻¹

B3: SVT15-3FW4M-GS3-SVT06-GS2-SVG13M5-H6 (bispecific antibody)
chain: QVQLQESGGGLVQTGGSLRLSCRASGRAFANYHFGWFRQAPGKDREFVASISWKGGSTYYANFALGRFTSSVDRAESSVYLQMSGLTPEDTATYYCAAHDGGDWNYHTGMDYWGQGTQVTVSSGGGGSGGGGSGGGGSQVQLQESGGGSVQAGGSLRLSCTASELSYDDYTIAWFRRAAGEGRVEDGEGVASITKSYDRAYDNKINYGHSVKGRFTISRDNAKNTVYLQMTDLLPSDTAVYYCALDITPPGGVGASLTEGFLFDYWGQGTQVTVSSGGGGSGGGSEVQLVESGGGLVQPGGSLRLSCEASGFTFDDYGMSWVRQAPGKGLEWVSSLTPNGGSTYYADSVKGRFTISRDNAKNTLYLQMNSLKPEDTALYYCAKNSYYGAMDYRGQGTQVTVSSHHHHHH
- Kd [14]: < 0.00041 nM
- koff [14]: < 1.99e-07 s⁻¹
- kon [14]: 484000 M⁻¹ s⁻¹
- Kd [15]: 0.0229 nM
- koff [15]: 2.73e-05 s⁻¹
- kon [15]: 1.19e+06 M⁻¹ s⁻¹
- binding result [16]: no binding (tested: 16-500 nM)
- binding result [17]: no binding (tested: 100 nM)
- binding result [18]: no binding (tested: 100 nM)

B4: SVT06L (VHH)
VHH: QVQLQESGGGSVQAGGSLRLSCTASELSYDDYTIAWFRRAAGEGRVEDGEGVASITKSYDRAYDNKINYGHSVKGRFTISRDNAKNTVYLQMTDLLPSDTAVYYCALDITPPGGVGASLTEGFLFDYWGQGTQVTVSS
- maximal absorbance value at 450 nm [19]: 0.099 A450
- binding result [20]: no binding (tested: 1000 ng/ml)
- binding result [21]: no binding (tested: 1000 ng/ml)
- binding result [22]: no binding (tested: 1000 ng/ml)
- binding result [23]: no binding (tested: 1000 ng/ml)
- binding result [24]: no binding (tested: 1000 ng/ml)
- binding result [25]: no binding (tested: 1000 ng/ml)
- binding result [26]: no binding (tested: 1000 ng/ml)
- binding result [27]: no binding (tested: 1000 ng/ml)
- binding result [28]: no binding (tested: 1000 ng/ml)
- SDA Effective Concentration resulting in A450 nm = 0.2 [29]: > 1000 ng/mL
- maximal absorbance value at 450 nm [29]: 0.056 A450
- SDA Effective Concentration resulting in A450 nm = 0.2 [30]: > 1000 ng/mL
- maximal absorbance value at 450 nm [30]: 0.06 A450
- SDA Effective Concentration resulting in A450 nm = 0.2 [31]: > 1000 ng/mL
- maximal absorbance value at 450 nm [31]: 0.08 A450
- SDA Effective Concentration resulting in A450 nm = 0.2 [32]: > 1000 ng/mL
- maximal absorbance value at 450 nm [32]: 0.057 A450
- SDA Effective Concentration resulting in A450 nm = 0.2 [33]: > 1000 ng/mL
- maximal absorbance value at 450 nm [33]: 0.053 A450
- SDA Effective Concentration resulting in A450 nm = 0.2 [34]: > 1000 ng/mL
- maximal absorbance value at 450 nm [34]: 0.051 A450
- SDA Effective Concentration resulting in A450 nm = 0.2 [35]: > 1000 ng/mL
- maximal absorbance value at 450 nm [35]: 0.073 A450
- SDA Effective Concentration resulting in A450 nm = 0.2 [36]: > 1000 ng/mL
- maximal absorbance value at 450 nm [36]: 0.065 A450

B5: SVT15-3FW4M-GS3-SVT06-GS2-SVG13M5-H6 (bispecific antibody)
chain: B3 chain
- binding result [37]: no binding (tested: 500 nM)
- binding result [38]: no binding (tested: 100 nM)
- binding result [39]: no binding (tested: 100 nM)
